Results as given in PMC7901536 (Arteriosclerosis, thrombosis, and vascular biology, 2021).

Tests used:
[1] = target: recombinant fibrinogen αC fragment, full-length (Aα 221-610); experiment: SPR; biotinylated αC fragments Aα 221-391 (80 RU), 368-610 (120 RU), 221-610 (180 RU) on SA chip; dimeric GPVI as analyte up to 20 μM; 25 °C; 1:1 Langmuir
[2] = target: recombinant fibrinogen αC fragment, C-terminal globular domain (Aα 368-610); experiment: as above
[3] = target: non-polymerising (NP) fibrin (UniProt P02671); experiment: SPR; NP-fibrinogen immobilised, then converted to fibrin with thrombin; GPVI dimer as analyte (additional SPR experiments in the supplemental methods)
[4] = target: recombinant non-polymerising (NP) fibrinogen (UniProt P02671); experiment: as above
[5] = target: dimeric GPVI (GPVI extracellular domain fused by IgG-Fc) (UniProt Q9HCN6); experiment: MST; CRP-XL titrated into FITC-labelled GPVI monomer or dimer; read-out is the fall of the initial fluorescence (quenching); 1:1 model; hypothetical KD on the monomeric-equivalent molar concentration of CRP-XL
[6] = target: monomeric GPVI (His-tagged GPVI extracellular domain) (UniProt Q9HCN6); experiment: as above
[7] = target: T1, dimeric GPVI (GPVI extracellular domain fused by IgG-Fc), Q9HCN6; experiment: MST; fibrin(ogen) or fragments titrated into FITC-labelled GPVI monomer or dimer (10 μl of 50 nM mixed 1:1); 20 mM HEPES pH 7.5, 50 mM NaCl; 23 °C; 1:1 model
T1 chain: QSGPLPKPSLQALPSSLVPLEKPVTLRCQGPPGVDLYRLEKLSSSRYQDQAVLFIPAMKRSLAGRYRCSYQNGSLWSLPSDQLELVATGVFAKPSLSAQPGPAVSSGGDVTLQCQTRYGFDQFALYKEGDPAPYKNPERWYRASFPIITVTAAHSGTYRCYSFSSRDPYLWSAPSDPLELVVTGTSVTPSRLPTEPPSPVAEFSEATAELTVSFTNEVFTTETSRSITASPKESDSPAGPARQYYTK

[8] = target: T1, dimeric GPVI (GPVI extracellular domain …); experiment: SPR; monomeric and dimeric GPVI immobilised as ligands; X-, D-, E-fragment or D-dimer as analytes up to 40 μM; 1:1 Langmuir
[9] = target: T2, monomeric GPVI (His-tagged GPVI extracellular domain), Q9HCN6; experiment: as above
T2 chain: T1 chain

[10] = target: T3, dimeric GPVI (GPVI extracellular domain fused by IgG-Fc) (UniProt Q9HCN6 21-267, FITC label (in MST); biotin via NHS-LC-biotin (when immobilised in SPR)); experiment: MST; fibrin(ogen) or fragments titrated into FITC-labelled GPVI monomer or dimer (10 μl of 50 nM mixed 1:1); 20 mM HEPES pH 7.5, 50 mM NaCl; 23 °C; 1:1 model; details: both partners purified
T3 sequence (looked up): T1 chain

[11] = target: T3, dimeric GPVI (GPVI extracellular domain …); experiment: SPR; monomeric and dimeric GPVI immobilised as ligands; X-, D-, E-fragment or D-dimer as analytes up to 40 μM; 1:1 Langmuir; details: both partners purified

In the case of “dimeric GPVI (GPVI extracellular domain fused by IgG-Fc) (from UniProt Q9HCN6 21-267) (Fc fusion)”, the Kd [1] is reported as 0.604 µM, the Kd [2] is reported as 2.3 µM and the Kd [3] is reported as 0.086 µM. For the same molecule, the Kd [4] was 0.127 µM.

“cross linked collagen-related peptide (CRP-XL)” gave a Kd [5] of 0.603 µM and a Kd [6] of 5 µM.

B1: fibrinogen X-fragment (domain or fragment)
chain 1: ADSGEGDFLAEGGGVRGPRVVERHQSACKDSDWPFCSDEDWNYKCPSGCRMKGLIDEVNQDFTNRINKLKNSLFEYQKNNKDSHSLTTNIMEILRGDFSSANNRDNTYNRVSEDLRSRIEVLKRKVIEKVQHIQLLQKNVRAQLVDMKRLEVDIDIKIRSCRGSCSRALAREVDLKDYEDQQKQLEQVIAKDLLPSRDRQHLPLIKMKPVPDLVPGNFK
chain 2: QGVNDNEEGFFSARGHRPLDKKREEAPSLRPAPPPISGGGYRARPAKAAATQKKVERKAPDAGGCLHADPDLGVLCPTGCQLQEALLQQERPIRNSVDELNNNVEAVSQTSSSSFQYMYLLKDLWQKRQKQVKDNENVVNEYSSELEKHQLYIDETVNSNIPTNLRVLRSILENLRSKIQKLESDVSAQMEYCRTPCTVSCNIPVVSGKECEEIIRKGGETSEMYLIQPDSSVKPYRVYCDMNTENGGWTVIQNRQDGSVDFGRKWDPYKQGFGNVATNTDGKNYCGLPGEYWLGNDKISQLTRMGPTELLIEMEDWKGDKVKAHYGGFTVQNEANKYQISVNKYRGTAGNALMDGASQLMGENRTMTIHNGMFFSTYDRDNDGWLTSDPRKQCSKEDGGGWWYNRCHAANPNGRYYWGGQYTWDMAKHGTDDGVVWMNWKGSWYSMRKMSMKIRPFFPQQ
chain 3: YVATRDNCCILDERFGSYCPTTCGIADFLSTYQTKVDKDLQSLEDILHQVENKTSEVKQLIKAIQLTYNPDESSKPNMIDAATLKSRKMLEEIMKYEASILTHDSSIRYLQEIYNSNNQKIVNLKEKVAQLEAQCQEPCKDTVQIHDITGKDCQDIANKGAKQSGLYFIKPLKANQQFLVYCEIDGSGNGWTVFQKRLDGSVDFKKNWIQYKEGFGHLSPTGTTEFWLGNEKIHLISTQSAIPYALRVELEDWNGRTSTADYAMFKVGPEADKYRLTYAYFAGGDAGDAFDGFDFGDDPSDKFFTSHNGMQFSTWDNDNDKFEGNCAEQDGSGWWMNKCHAGHLNGVYYQGGTYSKASTPNGYDNGIIWATWKTRWYSMKKTTMKIIPFNRLTIGEGQQHHLGGAK
modifications: not checked
B1 was tested, and the Kd [7] was over 2 µM, the Kd [8] was 9 µM and the Kd [9] was over 1000 µM.

B2: fibrinogen E-fragment (domain or fragment)
chain 1: VVERHQSACKDSDWPFCSDEDWNYKCPSGCRMKGLIDEVNQDFTNRINKLKNSLFEYQK
chain 2: KVERKAPDAGGCLHADPDLGVLCPTGCQLQEALLQQERPIRNSVDELNNNVEAVSQTSSSSFQYMYLLK
chain 3: YVATRDNCCILDERFGSYCPTTCGIADFLSTYQTKVDKDLQSLEDILHQVENK
B2 gave a Kd [10] of over 20 µM and a Kd [11] of 51 µM.

B3: fibrinogen D-fragment (domain or fragment)
chain 1: VSEDLRSRIEVLKRKVIEKVQHIQLLQKNVRAQLVDMKRLEVDIDIKIRSCRGSCSRALAREVDLKDYEDQQKQLEQVIAKDLLPSR
chain 2: DNENVVNEYSSELEKHQLYIDETVNSNIPTNLRVLRSILENLRSKIQKLESDVSAQMEYCRTPCTVSCNIPVVSGKECEEIIRKGGETSEMYLIQPDSSVKPYRVYCDMNTENGGWTVIQNRQDGSVDFGRKWDPYKQGFGNVATNTDGKNYCGLPGEYWLGNDKISQLTRMGPTELLIEMEDWKGDKVKAHYGGFTVQNEANKYQISVNKYRGTAGNALMDGASQLMGENRTMTIHNGMFFSTYDRDNDGWLTSDPRKQCSKEDGGGWWYNRCHAANPNGRYYWGGQYTWDMAKHGTDDGVVWMNWKGSWYSMRKMSMKIRPFFPQQ
chain 3: KMLEEIMKYEASILTHDSSIRYLQEIYNSNNQKIVNLKEKVAQLEAQCQEPCKDTVQIHDITGKDCQDIANKGAKQSGLYFIKPLKANQQFLVYCEIDGSGNGWTVFQKRLDGSVDFKKNWIQYKEGFGHLSPTGTTEFWLGNEKIHLISTQSAIPYALRVELEDWNGRTSTADYAMFKVGPEADKYRLTYAYFAGGDAGDAFDGFDFGDDPSDKFFTSHNGMQFSTWDNDNDKFEGNCAEQDGSGWWMNKCHAGHLNGVYYQGGTYSKASTPNGYDNGIIWATWKTRWYSMKKTTMKIIPFNRLTIGEGQQHHLGGAK
modifications: not checked
With B3 the Kd [7] was over 20 µM and the Kd [8] was 26 µM.

B4: D-dimer (degradation product of FXIIIa cross-linked fibrin) (domain or fragment)
chain 1: B3 chain 1
chain 2: B3 chain 2
chain 3: B3 chain 3
modifications: cross-linked by FXIIIa (chain and residues not stated)
Molecule B4 has a Kd [10] of over 20 µM and a Kd [11] of 28 µM.
